Laboratory results reported in patent US20210171613A1 (NATIONAL RESEARCH COUNCIL OF CANADA, published 2021).

Experiments:
[1] = molecular target: T1, Clostridium difficile toxin A (TcdA) (Clostridium difficile, UniProt P16154 1-2710); assay: cell-based or functional assay
[2] = molecular target: T1, Clostridium difficile toxin A (TcdA); assay: SPR on immobilized TcdA
Procedure: (§1) Before surface plasmon resonance (SPR) binding experiments, IMAC-purified VHHs were subjected to de-salting and further purification by size-exclusion chromatography (SEC). Approximately 500 μg of each VHH was injected over a Superdex 75 Increase 10/300 GL SEC column (GE Healthcare) in Biacore running buffer HBS-EP (10 mM HEPES pH 7.4, 150 mM NaCl, 3 mM EDTA, 0.005% (v/v) P20; GE Healthcare) under the control of an ÄKTA FPLC at 0.8 mL/min. Monomeric VHH fractions were collected and analyzed for binding to TcdA using a Biacore 3000 SPR instrument (GE Healthcare). Approximately 4,500 resonance units (RUs) of TcdA (List Biological Laboratories, Campbell, Calif.) were immobilized on a CM5 sensor chip (GE Healthcare) using the conditions previously described (Hussack et al, 2011). HBS-EP running buffer was used for all binding studies and regeneration of TcdA surfaces. Next, various dilution ranges of VHHs (as low as 10 nM-0.5 nM to as high as 5 μM-50 nM) were injected over immobilized TcdA at a flow rate of 40 μL/min with 120 s contact time and 600 s dissociation. Reference-subtracted sensorgrams were analyzed with BIAevaluation software (GE Healthcare) and fit to a 1:1 binding model. In cases where rapid kₒₙ and koff rate constants were observed, equilibrium dissociation constants (KDs) were determined by steady-state analysis.
The location of these mutations relative to the antigen epitope is illustrated in FIG. 2C.

[3] = molecular target: T1, Clostridium difficile toxin A (TcdA); assay: SPR (Biacore 3000), VHH over immobilized TcdA, 1:1 fit
Procedure: as §1

[4] = molecular target: T1, Clostridium difficile toxin A (TcdA); assay: SPR (Biacore 3000), VHH over immobilized TcdA; ratio of parent KD to mutant KD
Procedure: as §1

[5] = molecular target: T1, Clostridium difficile toxin A (TcdA); assay: SPR (Biacore 3000), VHH over immobilized TcdA; binding free energy difference relative to parent VHH
Procedure: as §1

T1 sequence (P16154 whole entry): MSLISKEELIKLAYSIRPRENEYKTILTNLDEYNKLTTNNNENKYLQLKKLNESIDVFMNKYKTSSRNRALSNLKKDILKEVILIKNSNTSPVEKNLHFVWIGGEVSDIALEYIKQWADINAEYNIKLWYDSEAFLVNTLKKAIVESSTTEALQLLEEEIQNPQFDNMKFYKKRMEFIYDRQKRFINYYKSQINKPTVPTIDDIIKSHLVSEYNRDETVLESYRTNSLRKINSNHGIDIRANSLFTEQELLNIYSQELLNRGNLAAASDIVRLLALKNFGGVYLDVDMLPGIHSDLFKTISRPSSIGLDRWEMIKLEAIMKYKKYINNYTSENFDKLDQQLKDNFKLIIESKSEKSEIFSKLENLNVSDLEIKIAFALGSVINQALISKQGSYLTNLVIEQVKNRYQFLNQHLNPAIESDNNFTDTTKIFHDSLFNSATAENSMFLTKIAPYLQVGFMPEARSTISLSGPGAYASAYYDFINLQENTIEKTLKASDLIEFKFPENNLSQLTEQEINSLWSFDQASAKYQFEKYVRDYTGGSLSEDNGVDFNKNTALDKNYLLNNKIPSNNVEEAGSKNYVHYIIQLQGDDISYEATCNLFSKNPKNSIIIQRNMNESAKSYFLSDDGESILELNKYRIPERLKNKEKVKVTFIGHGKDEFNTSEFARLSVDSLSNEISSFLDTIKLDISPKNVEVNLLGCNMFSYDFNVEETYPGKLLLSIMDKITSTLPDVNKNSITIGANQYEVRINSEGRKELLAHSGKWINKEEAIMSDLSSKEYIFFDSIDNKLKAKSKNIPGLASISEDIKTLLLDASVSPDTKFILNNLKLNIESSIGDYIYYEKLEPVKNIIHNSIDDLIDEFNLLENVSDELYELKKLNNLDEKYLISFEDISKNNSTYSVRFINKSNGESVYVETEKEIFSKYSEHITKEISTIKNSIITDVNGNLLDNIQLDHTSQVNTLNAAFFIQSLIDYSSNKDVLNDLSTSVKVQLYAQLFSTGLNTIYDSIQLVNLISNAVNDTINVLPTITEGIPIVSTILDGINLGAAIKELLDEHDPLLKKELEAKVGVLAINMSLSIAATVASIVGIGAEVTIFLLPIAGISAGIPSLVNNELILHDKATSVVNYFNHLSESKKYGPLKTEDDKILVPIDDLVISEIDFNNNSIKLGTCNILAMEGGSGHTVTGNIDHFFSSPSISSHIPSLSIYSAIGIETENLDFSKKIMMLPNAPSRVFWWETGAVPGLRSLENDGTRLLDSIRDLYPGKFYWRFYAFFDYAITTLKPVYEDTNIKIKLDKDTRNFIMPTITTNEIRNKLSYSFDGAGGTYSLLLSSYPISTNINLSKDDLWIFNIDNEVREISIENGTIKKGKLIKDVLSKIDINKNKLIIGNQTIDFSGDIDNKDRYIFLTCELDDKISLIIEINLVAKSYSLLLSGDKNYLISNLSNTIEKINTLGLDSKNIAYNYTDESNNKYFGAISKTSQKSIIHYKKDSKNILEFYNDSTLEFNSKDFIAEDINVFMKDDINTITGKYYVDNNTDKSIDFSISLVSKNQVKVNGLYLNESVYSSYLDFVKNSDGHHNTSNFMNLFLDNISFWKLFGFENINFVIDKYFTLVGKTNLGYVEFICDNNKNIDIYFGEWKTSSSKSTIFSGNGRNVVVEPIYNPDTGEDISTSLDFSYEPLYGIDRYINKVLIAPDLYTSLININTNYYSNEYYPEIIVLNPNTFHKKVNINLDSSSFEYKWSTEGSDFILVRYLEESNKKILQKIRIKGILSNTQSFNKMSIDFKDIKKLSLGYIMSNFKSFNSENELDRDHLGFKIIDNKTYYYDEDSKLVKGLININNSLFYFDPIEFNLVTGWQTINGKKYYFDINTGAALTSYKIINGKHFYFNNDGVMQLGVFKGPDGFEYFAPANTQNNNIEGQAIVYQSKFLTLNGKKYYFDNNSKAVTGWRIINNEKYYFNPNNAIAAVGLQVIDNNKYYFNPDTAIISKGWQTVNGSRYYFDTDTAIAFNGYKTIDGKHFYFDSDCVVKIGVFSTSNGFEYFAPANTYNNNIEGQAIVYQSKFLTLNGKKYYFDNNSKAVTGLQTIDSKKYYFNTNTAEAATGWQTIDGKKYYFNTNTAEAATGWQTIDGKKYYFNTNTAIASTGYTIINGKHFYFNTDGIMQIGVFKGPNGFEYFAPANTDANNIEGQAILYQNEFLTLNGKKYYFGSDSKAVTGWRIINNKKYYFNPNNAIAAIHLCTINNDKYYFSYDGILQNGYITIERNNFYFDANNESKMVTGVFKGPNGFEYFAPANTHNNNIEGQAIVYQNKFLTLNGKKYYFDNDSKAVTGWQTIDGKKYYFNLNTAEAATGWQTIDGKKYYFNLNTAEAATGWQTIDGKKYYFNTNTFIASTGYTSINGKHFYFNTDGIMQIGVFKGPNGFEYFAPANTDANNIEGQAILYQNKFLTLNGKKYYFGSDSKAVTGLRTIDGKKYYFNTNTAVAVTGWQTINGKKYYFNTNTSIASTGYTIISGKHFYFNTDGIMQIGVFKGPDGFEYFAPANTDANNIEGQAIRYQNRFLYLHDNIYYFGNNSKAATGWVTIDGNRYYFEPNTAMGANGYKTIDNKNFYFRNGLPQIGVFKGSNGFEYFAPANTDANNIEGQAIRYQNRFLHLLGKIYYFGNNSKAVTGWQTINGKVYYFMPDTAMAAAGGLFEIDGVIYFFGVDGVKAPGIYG

B1: Parent A26.8 VHH (VHH, not shown: small tags and cut ends)
VHH: QVKLEESGGGLVQAGGSLRLSCAASERTFSRYPVAWFRQAPGAEREFVAVISSTGTSTYYADSVKGRFTISRDNAKVTVYLQMNNLKREDTAVYFCAVNSQRTRLQDPNEYDYWGQGTQVTVSS
For B1, the “TcdA IC50, TcdA-induced Vero cell cytotoxicity (WST-1)” value [1] was ~70 nM and the “maximal TcdA inhibition level” value [1] was ~60%.

B2: A26.8 VHH mutant R104W (VHH, not shown: small tags and cut ends)
VHH: QVKLEESGGGLVQAGGSLRLSCAASERTFSRYPVAWFRQAPGAEREFVAVISSTGTSTYYADSVKGRFTISRDNAKVTVYLQMNNLKREDTAVYFCAVNSQRTWLQDPNEYDYWGQGTQVTVSS
With B2 the “fold decrease in affinity relative to parent A26.8 VHH” value [2] was ~10 fold, the Kd [3] was 165 nM and the koff [3] was 0.0548 s⁻¹. For the same binder, the kon [3] was 330000 M⁻¹ s⁻¹, the “KD^WT/KD” value [4] was 0.1 and the ΔΔG [5] was 1.27 kcal/mol.

B3: A26.8 VHH mutant D107N (VHH, not shown: small tags and cut ends)
VHH: QVKLEESGGGLVQAGGSLRLSCAASERTFSRYPVAWFRQAPGAEREFVAVISSTGTSTYYADSVKGRFTISRDNAKVTVYLQMNNLKREDTAVYFCAVNSQRTRLQNPNEYDYWGQGTQVTVSS
In the case of B3, the “fold decrease in affinity relative to parent A26.8 VHH” value [2] is reported as ≤ 2.5 fold, the Kd [3] is reported as 21.3 nM and the koff [3] is reported as 0.0402 s⁻¹. For the same binder, the kon [3] was 1.92e+06 M⁻¹ s⁻¹, the “KD^WT/KD” value [4] was 0.9 and the ΔΔG [5] was 0.08 kcal/mol.

B4: A26.8-T103R (VHH, not shown: small tags and cut ends)
VHH: QVKLEESGGGLVQAGGSLRLSCAASERTFSRYPVAWFRQAPGAEREFVAVISSTGTSTYYADSVKGRFTISRDNAKVTVYLQMNNLKREDTAVYFCAVNSQRRRLQDPNEYDYWGQGTQVTVSS
For B4, the “fold improvement in KD relative to parent A26.8 VHH” value [2] was > 2 fold, the “fold improvement in binding affinity relative to parent A26.8 VHH” value [2] was ~3 fold and the “fold improvement in koff relative to parent” value [2] was ~2.5 fold. For the same binder, the Kd [3] was 5.32 nM, the koff [3] was 0.014 s⁻¹ and the kon [3] was 2.7e+06 M⁻¹ s⁻¹. For the same binder, the “KD^WT/KD” value [4] was 3.5 and the ΔΔG [5] was -0.73 kcal/mol.

B5: A26.8-T56R, Q101K, T103M (VHH, not shown: small tags and cut ends)
VHH: QVKLEESGGGLVQAGGSLRLSCAASERTFSRYPVAWFRQAPGAEREFVAVISSTGRSTYYADSVKGRFTISRDNAKVTVYLQMNNLKREDTAVYFCAVNSKRMRLQDPNEYDYWGQGTQVTVSS
Binder B5 has a Kd [3] of 2.87 nM, a koff [3] of 0.0296 s⁻¹ and a kon [3] of 1.04e+07 M⁻¹ s⁻¹. For the same binder, the “KD^WT/KD” value [4] was 6.5 and the ΔΔG [5] was -1.1 kcal/mol.

B6: A26.8-T56R (VHH, not shown: small tags and cut ends)
VHH: QVKLEESGGGLVQAGGSLRLSCAASERTFSRYPVAWFRQAPGAEREFVAVISSTGRSTYYADSVKGRFTISRDNAKVTVYLQMNNLKREDTAVYFCAVNSQRTRLQDPNEYDYWGQGTQVTVSS
With B6 the “fold improvement in KD relative to parent A26.8 VHH” value [2] was > 2 fold, the “fold improvement in binding affinity relative to parent A26.8 VHH” value [2] was ~3 fold and the “fold improvement in kon relative to parent” value [2] was ~2.5 fold. For the same binder, the Kd [3] was 6.16 nM, the koff [3] was 0.0269 s⁻¹ and the kon [3] was 4.75e+06 M⁻¹ s⁻¹. The “KD^WT/KD” value [4] was 3 and the ΔΔG [5] was -0.65 kcal/mol.

B7: A26.8-T56R, T103K (VHH, not shown: small tags and cut ends)
VHH: QVKLEESGGGLVQAGGSLRLSCAASERTFSRYPVAWFRQAPGAEREFVAVISSTGRSTYYADSVKGRFTISRDNAKVTVYLQMNNLKREDTAVYFCAVNSQRKRLQDPNEYDYWGQGTQVTVSS
With B7 the Kd [3] was 3.44 nM, the koff [3] was 0.0291 s⁻¹ and the kon [3] was 8.61e+06 M⁻¹ s⁻¹. The “KD^WT/KD” value [4] was 5.4 and the ΔΔG [5] was -0.99 kcal/mol.

B8: A26.8 VHH mutant D107R (VHH, not shown: small tags and cut ends)
VHH: QVKLEESGGGLVQAGGSLRLSCAASERTFSRYPVAWFRQAPGAEREFVAVISSTGTSTYYADSVKGRFTISRDNAKVTVYLQMNNLKREDTAVYFCAVNSQRTRLQRPNEYDYWGQGTQVTVSS
B8 was tested, and the “fold decrease in affinity relative to parent A26.8 VHH” value [2] was ≤ 2.5 fold, the Kd [3] was 19 nM and the koff [3] was 0.0259 s⁻¹. The kon [3] was 1.39e+06 M⁻¹ s⁻¹, the “KD^WT/KD” value [4] was 1 and the ΔΔG [5] was 0.01 kcal/mol.

B9: A26.8-Q101K (VHH, not shown: small tags and cut ends)
VHH: QVKLEESGGGLVQAGGSLRLSCAASERTFSRYPVAWFRQAPGAEREFVAVISSTGTSTYYADSVKGRFTISRDNAKVTVYLQMNNLKREDTAVYFCAVNSKRTRLQDPNEYDYWGQGTQVTVSS
In the case of B9, the “fold improvement in KD relative to parent A26.8 VHH” value [2] is reported as > 2 fold, the “fold improvement in binding affinity relative to parent A26.8 VHH” value [2] is reported as > 2 fold and the Kd [3] is reported as 7.63 nM. The koff [3] was 0.0198 s⁻¹, the kon [3] was 2.7e+06 M⁻¹ s⁻¹ and the “KD^WT/KD” value [4] was 2.5. The ΔΔG [5] was -0.52 kcal/mol.

B10: A26.8 VHH mutant D107Y (VHH, not shown: small tags and cut ends)
VHH: QVKLEESGGGLVQAGGSLRLSCAASERTFSRYPVAWFRQAPGAEREFVAVISSTGTSTYYADSVKGRFTISRDNAKVTVYLQMNNLKREDTAVYFCAVNSQRTRLQYPNEYDYWGQGTQVTVSS
For B10, the “fold decrease in affinity relative to parent A26.8 VHH” value [2] was ≤ 2.5 fold, the Kd [3] was 44 nM and the koff [3] was 0.0711 s⁻¹. The kon [3] was 1.62e+06 M⁻¹ s⁻¹, the “KD^WT/KD” value [4] was 0.4 and the ΔΔG [5] was 0.5 kcal/mol.

B11: A26.8-T103W (VHH, not shown: small tags and cut ends)
VHH: QVKLEESGGGLVQAGGSLRLSCAASERTFSRYPVAWFRQAPGAEREFVAVISSTGTSTYYADSVKGRFTISRDNAKVTVYLQMNNLKREDTAVYFCAVNSQRWRLQDPNEYDYWGQGTQVTVSS
In the case of B11, the Kd [3] is reported as 16.3 nM, the koff [3] is reported as 0.0361 s⁻¹ and the kon [3] is reported as 2.39e+06 M⁻¹ s⁻¹. For the same binder, the “KD^WT/KD” value [4] was 1.1 and the ΔΔG [5] was -0.08 kcal/mol.

B12: A26.8-T56R, T103M (VHH, not shown: small tags and cut ends)
VHH: QVKLEESGGGLVQAGGSLRLSCAASERTFSRYPVAWFRQAPGAEREFVAVISSTGRSTYYADSVKGRFTISRDNAKVTVYLQMNNLKREDTAVYFCAVNSQRMRLQDPNEYDYWGQGTQVTVSS
In the case of B12, the Kd [3] is reported as 4.84 nM, the koff [3] is reported as 0.0304 s⁻¹ and the kon [3] is reported as 6.42e+06 M⁻¹ s⁻¹. For the same binder, the “KD^WT/KD” value [4] was 3.9 and the ΔΔG [5] was -0.79 kcal/mol.

B13: A26.8-T103K (VHH, not shown: small tags and cut ends)
VHH: QVKLEESGGGLVQAGGSLRLSCAASERTFSRYPVAWFRQAPGAEREFVAVISSTGTSTYYADSVKGRFTISRDNAKVTVYLQMNNLKREDTAVYFCAVNSQRKRLQDPNEYDYWGQGTQVTVSS
In the case of B13, the “fold improvement in KD relative to parent A26.8 VHH” value [2] is reported as > 2 fold, the “fold improvement in binding affinity relative to parent A26.8 VHH” value [2] is reported as > 2 fold and the Kd [3] is reported as 8.29 nM. For the same binder, the koff [3] was 0.0199 s⁻¹, the kon [3] was 2.47e+06 M⁻¹ s⁻¹ and the “KD^WT/KD” value [4] was 2.3. It also gave a ΔΔG [5] of -0.48 kcal/mol.

B14: A26.8-T58K (VHH, not shown: small tags and cut ends)
VHH: QVKLEESGGGLVQAGGSLRLSCAASERTFSRYPVAWFRQAPGAEREFVAVISSTGTSKYYADSVKGRFTISRDNAKVTVYLQMNNLKREDTAVYFCAVNSQRTRLQDPNEYDYWGQGTQVTVSS
B14 showed a Kd [3] of 13.5 nM, a koff [3] of 0.0327 s⁻¹ and a kon [3] of 2.47e+06 M⁻¹ s⁻¹. For the same binder, the “KD^WT/KD” value [4] was 1.4 and the ΔΔG [5] was -0.19 kcal/mol.

B15: A26.8 VHH mutant E110Q (VHH, not shown: small tags and cut ends)
VHH: QVKLEESGGGLVQAGGSLRLSCAASERTFSRYPVAWFRQAPGAEREFVAVISSTGTSTYYADSVKGRFTISRDNAKVTVYLQMNNLKREDTAVYFCAVNSQRTRLQDPNQYDYWGQGTQVTVSS
With B15 the “fold decrease in affinity relative to parent A26.8 VHH” value [2] was ≤ 2.5 fold, the Kd [3] was 33.6 nM and the koff [3] was 0.0699 s⁻¹. For the same binder, the kon [3] was 2.08e+06 M⁻¹ s⁻¹, the “KD^WT/KD” value [4] was 0.6 and the ΔΔG [5] was 0.34 kcal/mol.

B16: A26.8-T103M (VHH, not shown: small tags and cut ends)
VHH: QVKLEESGGGLVQAGGSLRLSCAASERTFSRYPVAWFRQAPGAEREFVAVISSTGTSTYYADSVKGRFTISRDNAKVTVYLQMNNLKREDTAVYFCAVNSQRMRLQDPNEYDYWGQGTQVTVSS
With B16 the Kd [3] was 13.7 nM, the koff [3] was 0.0237 s⁻¹ and the kon [3] was 1.77e+06 M⁻¹ s⁻¹. For the same binder, the “KD^WT/KD” value [4] was 1.4 and the ΔΔG [5] was -0.18 kcal/mol.
